Laboratory results as given in article PMC7291619.

Biological target: in vitro-polymerized and paclitaxel-stabilized microtubules (UniProt P02554)
Assay: co-sedimentation; varied concentrations of purified His-TbSpef1 incubated with in vitro-assembled, paclitaxel-stabilized microtubules at room temperature for 30 min; diluted in cushion buffer (80 mM PIPES pH 7.0, 1 mM MgCl2, 1 mM EGTA, 60% glycerol, 20 uM paclitaxel); 100,000 x g, 30°C, 30 min; pellets and supernatants immunoblotted

in vitro-polymerized and paclitaxel-stabilized microtubules, sequence (P68363 whole entry, chain 1 of 2): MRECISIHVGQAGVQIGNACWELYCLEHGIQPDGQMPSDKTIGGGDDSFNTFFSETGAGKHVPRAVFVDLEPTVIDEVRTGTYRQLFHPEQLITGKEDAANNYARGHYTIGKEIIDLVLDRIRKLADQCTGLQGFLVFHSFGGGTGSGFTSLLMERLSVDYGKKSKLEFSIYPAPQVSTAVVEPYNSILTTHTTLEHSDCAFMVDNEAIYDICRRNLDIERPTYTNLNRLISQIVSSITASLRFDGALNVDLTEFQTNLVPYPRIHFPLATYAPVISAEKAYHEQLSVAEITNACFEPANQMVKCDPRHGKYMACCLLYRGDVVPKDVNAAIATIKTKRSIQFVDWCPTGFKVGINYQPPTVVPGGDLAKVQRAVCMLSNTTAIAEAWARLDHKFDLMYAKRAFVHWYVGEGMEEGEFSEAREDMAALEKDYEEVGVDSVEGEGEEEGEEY
in vitro-polymerized and paclitaxel-stabilized microtubules, sequence (P02554 whole entry, chain 2 of 2): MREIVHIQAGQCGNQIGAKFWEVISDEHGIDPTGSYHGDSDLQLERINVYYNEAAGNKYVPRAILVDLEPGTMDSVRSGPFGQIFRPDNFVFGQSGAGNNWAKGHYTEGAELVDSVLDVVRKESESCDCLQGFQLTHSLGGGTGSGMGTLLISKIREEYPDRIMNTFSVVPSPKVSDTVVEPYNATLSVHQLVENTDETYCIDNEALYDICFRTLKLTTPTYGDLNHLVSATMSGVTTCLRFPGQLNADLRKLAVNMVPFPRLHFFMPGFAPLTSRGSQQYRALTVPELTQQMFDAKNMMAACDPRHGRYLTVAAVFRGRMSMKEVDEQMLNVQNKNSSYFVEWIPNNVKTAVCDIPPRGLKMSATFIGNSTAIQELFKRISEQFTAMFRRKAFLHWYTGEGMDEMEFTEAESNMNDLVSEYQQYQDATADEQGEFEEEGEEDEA

Q: For His-TbSpef1 (natural protein), which stoichiometry N (TbSpef1 per α/β-tubulin dimer) is on record?
A: > 1
